How the values were obtained:
[1] = Melting temperature [CD spectroscopy]; conditions: pH 8.5; part of the chain shown
[2] = substrate: pNPB; assay: Proxy for plastic degradation [Residual activity]; conditions: pH 8, part of the chain shown

Protein	Melting temperature [1] [°C]	Proxy for plastic degradation ([2]; 25 °C) [%]	Proxy for plastic degradation ([2]; 30.7 °C) [%]	Proxy for plastic degradation ([2]; 40.2 °C) [%]	Proxy for plastic degradation ([2]; 50.6 °C) [%]	Proxy for plastic degradation ([2]; 54.9 °C) [%]	Proxy for plastic degradation ([2]; 59.5 °C) [%]	Proxy for plastic degradation ([2]; 65.6 °C) [%]	Proxy for plastic degradation ([2]; 68.6 °C) [%]	Proxy for plastic degradation ([2]; 74.8 °C) [%]	Proxy for plastic degradation ([2]; 78.8 °C) [%]
unnamed (protein) ANPYERGPNPTDALLEARSGPFSVSEENVSRLSASGFGGGTIYYPRENNTYGAVAISPGYTGTEASIAWLGERIASHGFVVITIDTITTLDQPDSRAEQLNAALNHMINRASSTVRSRIDSSRLAVMGHSMGGGGSLRLASQRPDLKAAIPLTPWHLNKNWSSVTVPTLIIGADLDTIAPVATHAKPFYNSLPSSISKAYLELDGATHFAPNIPNKIIGKYSVAWLKRFVDNDTRYTQFLCPGPRDGLFGEVEEYRSTCPF	70	–	–	–	–	–	–	–	–	–	–
unnamed (protein) ANPYERGPNPTDALLEARSGPFSVSEENVSRLSASGFGGGTIYYPRENNTYGAVAISPGYTGTEASIAWLGERIASHGFVVITIDTITTLDQPDSRAEQLNAALNHMINRASSTVRSRIDSSRLAVMGHSMGGGGSLRLASQRPDLKAAIPLTPWHLNKNWSSVTVPTLIIGADLDTIAPVATHAKPFYNSLPSSISKAYLELDGATHFAPNIPNKIIGKYSVAWLKRFVDNDTRYTQFLCPGPRDGLFGEVEEYRSTCPFY	–	100	110	95	115	85	65	2	1	0	0

Source: the PETadex activity labels (doi:10.1007/s00253-014-5672-0)
